Reference: PMC12053377

Biological target: SARS-CoV-2 S HexaPro (Spike 6P) ectodomain trimer (SARS-CoV-2 | not stated) (UniProt P0DTC2)
Experiment: cryo-EM structure

Substance “SARS-CoV-2 S HexaPro (Spike 6P) ectodomain trimer (from UniProt P0DTC2 14-1208) (domain or fragment)” has a stoichiometry N of 3 protomers.
